From the DeepSol protein solubility set

Assay: soluble on expression in E. coli; label from the status in PepcDB or PDB records

Sequence | soluble on expression in E. coli
MGSDKIHHHHHHMFRSMRTSHERVHFTAKARRASTMAAPQNKVIVTCAVTGGIHTPTMSPHLPITARDIEDESVAAAEAGAAIVHLHARKPENGQPSQDPALFLEFLPRIAARSDVVINLTTGGAPNMLVEERLQPALQLKPEVASLNMGSMNFGLYPMIARHKTFKYDWERPYLEGSEDRVFRNTFKEIRYILESCADNGTRFEIECYDTSHLYTAAHFIDRGILKPPFFIQSVFGLLGGIGTHPDDVMHMRRTAERLFGKDYYWSVLGAGRSQMPIASMAAAMGGNVRVGLEDSLWEDRGRLSRSNADQVRRVVGILKSLNLEVATPDEARDMLQLKGRDAVAF | not soluble
GMGQRSDSDHVMAEATTDKRQGHTRGRTGNDRRTQIIKVATELFREKGYYATSLDDIADRIGFTKPAIYYYFKSKEDVLFAIVNSIVDEALERFHAIAAGPGSPGERIHALLVEHTRTILRNLDANTLFYNERGLLSPEREREMRKREREYTEIMQRLYAEGVATGELLDVDPTVATATLLGAAIWTYRWYDPEGRLSADEVVEQITRLLLNGYRRPA | soluble
MKISAVVVTFNRKKLLLECLNALRNQTYPLDAIFIIDGPSTDGTPEALLECGYIKELPPKKGNWSWETKNVIYSPINNKPIKVYYVRLYKDVGGSGGFYEGVKRAYEEGYNWIWLMDDDAEPREDALEKLIRYMNLPGVIALAPTVIRPTGEISKPHRGILCFKKIFPMIQIPLDESKYKSNQPVQIDFVSFVGPLIKRDAIKIVGFPKKEFFIHHDDVEYSIRLRTVGKIYLIPDSVIIHKENIKKTSLIKKRFLGKTIYRIPYNKLWKTYYGTRNLTYLGRIYSKSKFKFYFKLLKRWAVSVGAIILFDDHKIKRIQFITSAYLDGLRGKFDNEKPKRILYGGKKELEHHHHHH | soluble
MGITSAGMQSRDAECGERIFTRTVRQVKQQTTVHYFVSPPRPPVKTNPQAKTLISTRLEVATRKKRRVLFILEHHHHHH | not soluble
MGSDKIHHHHHHMNEFIASIKSATASLHTQLEQSEISNVIMSQLVTEKAYAEYLSRIQCMHEDIEKHTFPIIHTIIKDTAQRTKSTAIAADLDQLKYASAVNKTFLDAAHSPDLNFNLGLMYVTEGSVLGGQVILKNIKKQLGEDIASRFLNVYGQQTGHLWRSFLIQLSEYQSTLSEKEKMTIIDGAKYGFERVYSILM | not soluble
MTGERIEKVKINDEFAKSHFLTTQWRETKRQRHYKMPVTEQGLRERIESAIPQVYHIIVTDLSYGCGQSFDIVVVSDFFQGKSKLMRSRAVNKAVKEELQEIHAFSCKCYTEEEWSKIVV | soluble
MGSDKIHHHHHHMETWRFIDSGDRDPAYNMALDEALLNWHSEGLIPPTIRFYGWNPPTLSIGYFQKVQKEINMEMVEKHQLGFVRRPTGGRGVLHDKELTYSVIVTEEHPDMPASVTEAYRIISQGILEGFRDLGLDAYFAVPKTEEEKNALKNPRSAVCFDAPSWYELVVEGRKVAGSAQTRQKGVILQHGSIVLDIDEDKLFDLFNYPSERVRERMQRNFKNKAVPINELRDVPLSMEEVKKAFKDGFEKGLSIKLEPYTLTDAEEAEVKQIAKERYETDEWNFRK | not soluble
MRFSPIIGPSSYVSSLCHSILRGELFSTCSVGCIYCYARWYRGAHGKEKPLWESLKLIKMLGGIIREGLAITPIRVSTLSDPFQGEGKITLKFLKLALKEKVPVIINTKLIPREKHIKTIERLAEEGLVVVQVSLPTLEETKVLEPFSPSPGQRLELIERLSRAGVPTIVRVQPFVPGWIRDIHTFIEEIASAGARMIILEFLRIEKELLPLFSKLFPGEDIYKREWESYLPGTSTEEAPLLHPPLDYRLSIAREFSIKAEKEGLAFSTCKEGLFEFHTPLNVDCCGMAFFDVEYISRRPTLWDLYLEIVENGKAKGEDLWERCRREELLCRENLTPYPRWFRRGFIAHEKRLESVLRKPHIVERITPSIKYENGYFIKRKERSNSGYNSFF | not soluble
LREQPQQNECQLERLDALEPDNRIESEGGLIETWNPNNKQFRCAGVALSRATLQRNALRRPYYSNAPQEIFIQQGNGYFGMVFPGCPETFEEPQESEQGEGRRYRDRHQKVNRFREGDIIAVPTGIVFWMYNDQDTPVIAVSLTDIRSSNNQLDQMPRRFYLAGNHEQEFLQYQHQQGGKQEQENEGNNIFSGFKRDFLEDAFNVNRHIVDRLQGRNEDEEKGAIVKVKGGLSIISPPEKQARHQRGSRQEEDEDEEKQPRHQRGSRQEEEEDEDEERQPRHQRRRGEEEEEDKKERGGSQKGKSRRQGDNGLEETVCTAKLRLNIGPSSSPDIYNPEAGRIKTVTSLDLPVLRWLKLSAEHGSLHKNAMFVPHYNLNANSIIYALKGRARLQVVNCNGNTVFDGELEAGRALTVPQNYAVAAKSLSDRFSYVAFKTNDRAGIARLAGTSSVINNLPLDVVAATFNLQRNEARQLKSNNPFKFLVPARESENRASA | soluble
MSMLKIGDIVTRKSHGQDIYFIVTDIQNKDSSKPVYILRGLFYRIIVDAFEDDLVKKDSRSTRINLRRDLTMARSNAYRQIFTSRCFLFSKPRQRPGKVLHIDSSESFLKMCRNLYKEAGITSREYLAPESEQPNIIKRALAETKPDILVVTGHDSLKKGSDPNLLDSYRNSKYFIECVKEARKYQPDYDKLCIFAGACQSYFEAIMQAGANFASSPGRININALDPAIVSEKVALTNKDNYVTPEEVSKLTISGSKGIGGIKTRGHLTVL | soluble
MGSDKIHHHHHHKFIIFTYKDSYINQSATFHSDRTNLNIKREKCDFSFFNISIGHKLSLSLQNLIINPFNYMAFTNNIMIVRHRLLTELVKLWKNGELTTDKIDRLPLELSPRRSKHAGRCCVHKERAVWKYKSLPLLGLDMDDETDELTPLSEYAARSIERANNGKPKDNIMCVIDEACSACVQINYEITDLCRGCTARSCQYNCPKGAVHVHADTGKAWIDHDTCISCGICHKSCPYHAIVYIPVPCEESCPVKAISKDEHGIEHIDENKCIYCGKCMNACPFGAIFEISQTFDVLQRIRKGEQVVAIVAPSILGQFSTTIEQVYGAFRQIGFTDIIEVAQGAMSTVEHEAHELIEKLEEGQKFMTTSCCPSYIELVNKYIPDMKKYVSGTGSPMYYAARIAKEKYPDAKIVFVGPCVAKRKEAQRDEAVDFVMTFEEISSIFDAFEINLEIVQPYAMEFSSVREAHGFAQAGGVMGAVKAFLKMEADKINAIQVSDLNKKNIGTLRAYAKSGKAPGQFIEVMACEGGCITGPSTHSGSNNGKRQLVQELAKQKKTY | not soluble
MASKDAQVTLSRGEQSVKRIKEFNPKKDNFSILLMGIDARPGQSMDKERSDAMVLATFNRKDKSVKLLSIPRDSYVNIPGRGYDKITHAHSLGGRDLSTETVENLLDIPVDYVMEANFSAFKEVVDELGGVPITIKEDYIVRQIKKDTKGKVNLQTGEQTLGGEEALAYVRTRKADTDLKRGERQMEVIKSIINKSKSLTSIPAYDDILDTVGKNVSMNLSLNDAIGLIPFMTSIQTVDTLQLKGSDYQPGKVYYFQLDQENLNEIKQELKQQLDVLEHHHHHH | soluble
MAHHHHHHMIYLIDNEDMIYIEFYRKKDCTFVYKFFNDTLPTGSTLSTSDVSAEYANIKYEINNNSCTVYSCDYSCLLKHKDYITIINNVLDKNLSDEILENYKNEKWLMYTKNDEEKLNLVIESNTLLRIKGKLRHEIIFGIPKKKKIQMQDKLMDRKNSYLVIFRFIREDNIKNFVTQKIKNKIPQNERQEKDCVPINVNEYTSEKLEKMYVLDVYNQIALHFGHTRAYEQEENVVGNRKFDSQDIFVPWYFQQQYKTEGYDDDAEGEGEEEPEKENEKEKEESHKFKPVKKGNMFKILKMKFFFFFYLLHNFRNIYIYNL | soluble
SLKLLIEEFIPVEEISEEAKKEKLGNAKPPIFSLHYWWARKPLITARAAVLGALISKENLPMIVGNGDLKTNLLRILRIPKDINEGPRAHTQDPPAEYLKEAIIKTWGEIPTVLDPFAGGGSIPFEALRLGCNAVAVDYNPVAYLILKETLEYPKKYGMKLIL | soluble
MIQTKQIGLQEVLSAAIKRATDEKILVSFVKQIDWMDPLLFYAAGKRISFENRCYFADPAQHVIFAGIGSVFTIATASRKRFQTARDEWDKVKEKAFVQREKYEFGTGPLLFGGFSFDQEKEKTDLWKEFDDTTFSLPTFLLTVKNEKAWLTMNTFVSATDCAETLYNEIVSLEEKIFEESKCALEGSKLTVTSKVEVDPKGWMKAIEKVQDEMKQGNVQKVVLARELKVEMDHHIDSALVLEALRIGQPDCYVFSFDYKGACFLGATPERLIRKEDEKFTSMCLAGSTSHGQSIEESKRNSNALLHDEKNLAEHGYVVNMIRSVLNEHCEFVNIPESPGLLTTKNLIHLYTPVEAKGDASLLTMVEELHPTPALGGTPRLEAMKLIRDVELLDRGLYGAPIGWIDDEGNGEFAVALRCGLLNGEKASLFAGCGIVIDSVPQLEYEETSLKFRPMLGALEELMK | not soluble
FPSQDQYLAGLLETPEQKIRAYVLFAHCFTCGKDVAAASRISRFLVQHGFAVFRFDFTGLGNSDGDFANTNFSSNTEDLVSAAYFLEQNYEAPQLLIGHSLGGAAVLAMASQLPKVKGVVTIGAPYEASHVIHNFDAHLEKIDQSGSAKVSLGSREFTIKKQFLDDLRNQTTEHIQHLNKALLVLHSPIDLTVDISDAEKIYKAAKHPKSFVSLDTADHLLSKSIDSEYVAQTISGWASRYIP | not soluble
MADNYVIWFENLRMTDVERVGGKNASLGEMISQLTEKGVRVPGGFATTAEAYRAFLAHNGLSERISAALAKLDVEDVAELARVGKEIRQWILDTPFPEQLDAEIEAAWNKMVADAGGADISVAVRSSATAEDLPDASFAGQQETFLNINGLDNVKEAMHHVFASLYNDRAISYRVHKGFEHDIVALSAGVQRMVRSDSGASGVMFTLDTESGYDQVVFVTSSYGLGENVVQGAVNPDEFYVFKPTLKAGKPAILRKTMGSKHIKMIFTDKAEAGKSVTNVDVPEEDRNRFSITDEEITELAHYALTIEKHYGRPMDIEWGRDGLDGKLYILQARPETVKSQEEGNRNLRRFAINGDKTVLCEGRAIGQKVGQGKVRLIKDASEMDSVEAGDVLVTDMTDPDWEPV | not soluble
MGSDKIHHHHHHLTYNLLEGSGWMLKIYQVDSFTAVPFGGNPAGVCLLDEEIDERLYPRIASEMNLSETAFVRPGDEKNTYGLRWFTPKVEVKMCGHATLATAWIHFTELGVKGEISYETLSGKLGVRYVDGKIEMNFPSDNPYRVRIDEMLGRITGVEGECYYSSLTEKLLYIISSKSKLENLSFDFSLLETCDFGYTVKGLIVSSPGDEKFDFYSRYFAPWVGIDEDPVTGSAHTVLGPFWSEKLGRKNLRACQLSSRRGELDLELLPNSRILILGKAVTVIRGTISI | not soluble
MSLGKMVIGFAHPDFNDMFLGFLLAGVQAYEAEQTNVEVVYVDAENDSDGQIAQVEDLIAQGVDAIMAIPVDLIATEFIVDRAQQAGVPVVLINRDSVEREDAYVGSDSLQAGTIQMEEVAAVLKGKGKIAIMNGQMGHTAQINRTLGNKQVVDQYPGMEVVIEGTGGWSREKGKELMESWIESGQTFDAVVANNDEMAIGAIMAAEEAGIVDELVFAGIDGTPDALDYMSKGKLTISVFQDAKGQGQTGLEQAIKLAKGESAEKMTNIPYETITKRNVDEGHHHHHH | soluble
MKKDILEKGAILQRDRETYAIAPHIPGGITDTATLRKLCDVADKYGVKELKLTSAQRIALFGVKEEDLDAIWSDLDQQPGAAIGLCVRSVKICPGTTWCKRGVQDSVSLGLKIDAIYHAMELPNKMKMGISGCMLNCAETMLKDVGVVGTPKGWRIYVGGNAGARPRIGDLLVELGPDEDKVLAVIADLVEWYRSSGSEQRLGRVVEQMGFDAFKTAVLGAKATP | not soluble
